± gives the uncertainty stated by the source.
B1: Histone-lysine N-methyltransferase SETD2, residues 2382 to 2430; numbered along this chain, Q9BYW2 (parent)
chain: SPPKPKTIVLPPNWKTARDPEGKIYYYHVITRQTQWDPPTWESPGDDAS

Variants of: B1
Test: abundance fitness (aPCA) (normalised: wild type 0, dead -1); higher = more abundant; growth selection in yeast, the domain comes from the species named
Conditions: Homo sapiens

**Q.** For SPPKPKTIVLPPNWKTARDPEGKIYYYHCITRQTQWDPPTWESPGDDAS [V29C], which abundance fitness is on record?
**A.** -0.074 ± 0.064

**Q.** For SPPKPKTIVLPPNWKTARDPEGKIYYYHEITRQTQWDPPTWESPGDDAS [V29E], which abundance fitness is on record?
**A.** 0.139 ± 0.057

**Q.** With SPPKPKTIVLPPNWKTARDPEGKIYYYHGITRQTQWDPPTWESPGDDAS [V29G] as the variant, how does the abundance fitness read?
**A.** -0.309 ± 0.039

**Q.** With SPPKPKTIVLPPNWKTARDPEGKIYYYHHITRQTQWDPPTWESPGDDAS [V29H] as the variant, how does the abundance fitness read?
**A.** -0.208 ± 0.12

**Q.** For SPPKPKTIVLPPNWKTARDPEGKIYYYHKITRQTQWDPPTWESPGDDAS [V29K], which abundance fitness is on record?
**A.** -0.255 ± 0.034

**Q.** With SPPKPKTIVLPPNWKTARDPEGKIYYYHLITRQTQWDPPTWESPGDDAS [V29L] as the variant, how does the abundance fitness read?
**A.** -0.287 ± 0.053

**Q.** Which abundance fitness does the source give for SPPKPKTIVLPPNWKTARDPEGKIYYYHMITRQTQWDPPTWESPGDDAS [V29M] here?
**A.** 0.079 ± 0.087

**Q.** Which abundance fitness does the source give for SPPKPKTIVLPPNWKTARDPEGKIYYYHNITRQTQWDPPTWESPGDDAS [V29N] here?
**A.** -0.644 ± 0.26

**Q.** Which abundance fitness does the source give for SPPKPKTIVLPPNWKTARDPEGKIYYYHQITRQTQWDPPTWESPGDDAS [V29Q] here?
**A.** -0.018 ± 0.078

**Q.** Which abundance fitness does the source give for SPPKPKTIVLPPNWKTARDPEGKIYYYHRITRQTQWDPPTWESPGDDAS [V29R] here?
**A.** -0.428 ± 0.05

**Q.** With SPPKPKTIVLPPNWKTARDPEGKIYYYHSITRQTQWDPPTWESPGDDAS [V29S] as the variant, how does the abundance fitness read?
**A.** -0.002 ± 0.035

**Q.** Which abundance fitness does the source give for SPPKPKTIVLPPNWKTARDPEGKIYYYHTITRQTQWDPPTWESPGDDAS [V29T] here?
**A.** 0.145 ± 0.077

**Q.** With SPPKPKTIVLPPNWKTARDPEGKIYYYHWITRQTQWDPPTWESPGDDAS [V29W] as the variant, how does the abundance fitness read?
**A.** -0.564 ± 0.068

**Q.** For SPPKPKTIVLPPNWKTARDPEGKIYYYHYITRQTQWDPPTWESPGDDAS [V29Y], which abundance fitness is on record?
**A.** -0.258 ± 0.12

**Q.** Which abundance fitness does the source give for SPPKPKTIVLPPNWKTARDPEGKIYYYHVATRQTQWDPPTWESPGDDAS [I30A] here?
**A.** -0.314 ± 0.057

**Q.** Which abundance fitness does the source give for SPPKPKTIVLPPNWKTARDPEGKIYYYHVCTRQTQWDPPTWESPGDDAS [I30C] here?
**A.** -0.498 ± 0.04

**Q.** Which abundance fitness does the source give for SPPKPKTIVLPPNWKTARDPEGKIYYYHVDTRQTQWDPPTWESPGDDAS [I30D] here?
**A.** -0.21 ± 0.08

**Q.** With SPPKPKTIVLPPNWKTARDPEGKIYYYHVETRQTQWDPPTWESPGDDAS [I30E] as the variant, how does the abundance fitness read?
**A.** -0.307 ± 0.044

**Q.** With SPPKPKTIVLPPNWKTARDPEGKIYYYHVFTRQTQWDPPTWESPGDDAS [I30F] as the variant, how does the abundance fitness read?
**A.** -0.361 ± 0.2

**Q.** Which abundance fitness does the source give for SPPKPKTIVLPPNWKTARDPEGKIYYYHVGTRQTQWDPPTWESPGDDAS [I30G] here?
**A.** -0.313 ± 0.041

**Q.** Which abundance fitness does the source give for SPPKPKTIVLPPNWKTARDPEGKIYYYHVHTRQTQWDPPTWESPGDDAS [I30H] here?
**A.** -0.068 ± 0.088

**Q.** With SPPKPKTIVLPPNWKTARDPEGKIYYYHVKTRQTQWDPPTWESPGDDAS [I30K] as the variant, how does the abundance fitness read?
**A.** -0.144 ± 0.052

**Q.** For SPPKPKTIVLPPNWKTARDPEGKIYYYHVLTRQTQWDPPTWESPGDDAS [I30L], which abundance fitness is on record?
**A.** -0.087 ± 0.046

**Q.** Which abundance fitness does the source give for SPPKPKTIVLPPNWKTARDPEGKIYYYHVMTRQTQWDPPTWESPGDDAS [I30M] here?
**A.** -0.19 ± 0.034

**Q.** For SPPKPKTIVLPPNWKTARDPEGKIYYYHVNTRQTQWDPPTWESPGDDAS [I30N], which abundance fitness is on record?
**A.** -0.046 ± 0.12

**Q.** Which abundance fitness does the source give for SPPKPKTIVLPPNWKTARDPEGKIYYYHVPTRQTQWDPPTWESPGDDAS [I30P] here?
**A.** -0.08 ± 0.042

**Q.** With SPPKPKTIVLPPNWKTARDPEGKIYYYHVQTRQTQWDPPTWESPGDDAS [I30Q] as the variant, how does the abundance fitness read?
**A.** -0.268 ± 0.11

**Q.** For SPPKPKTIVLPPNWKTARDPEGKIYYYHVRTRQTQWDPPTWESPGDDAS [I30R], which abundance fitness is on record?
**A.** -0.018 ± 0.046

**Q.** With SPPKPKTIVLPPNWKTARDPEGKIYYYHVSTRQTQWDPPTWESPGDDAS [I30S] as the variant, how does the abundance fitness read?
**A.** -0.344 ± 0.06

**Q.** For SPPKPKTIVLPPNWKTARDPEGKIYYYHVTTRQTQWDPPTWESPGDDAS [I30T], which abundance fitness is on record?
**A.** -0.013 ± 0.07

**Q.** For SPPKPKTIVLPPNWKTARDPEGKIYYYHVWTRQTQWDPPTWESPGDDAS [I30W], which abundance fitness is on record?
**A.** -0.447 ± 0.09

**Q.** With SPPKPKTIVLPPNWKTARDPEGKIYYYHVYTRQTQWDPPTWESPGDDAS [I30Y] as the variant, how does the abundance fitness read?
**A.** -0.244 ± 0.12

**Q.** For SPPKPKTIVLPPNWKTARDPEGKIYYYHVIARQTQWDPPTWESPGDDAS [T31A], which abundance fitness is on record?
**A.** -0.742 ± 0.11

**Q.** With SPPKPKTIVLPPNWKTARDPEGKIYYYHVIDRQTQWDPPTWESPGDDAS [T31D] as the variant, how does the abundance fitness read?
**A.** -0.724 ± 0.25

**Q.** Which abundance fitness does the source give for SPPKPKTIVLPPNWKTARDPEGKIYYYHVIERQTQWDPPTWESPGDDAS [T31E] here?
**A.** -0.735 ± 0.048

**Q.** Which abundance fitness does the source give for SPPKPKTIVLPPNWKTARDPEGKIYYYHVIGRQTQWDPPTWESPGDDAS [T31G] here?
**A.** -0.927 ± 0.088

**Q.** For SPPKPKTIVLPPNWKTARDPEGKIYYYHVIHRQTQWDPPTWESPGDDAS [T31H], which abundance fitness is on record?
**A.** -0.761 ± 0.17

**Q.** Which abundance fitness does the source give for SPPKPKTIVLPPNWKTARDPEGKIYYYHVIIRQTQWDPPTWESPGDDAS [T31I] here?
**A.** -0.945 ± 0.13

**Q.** For SPPKPKTIVLPPNWKTARDPEGKIYYYHVIKRQTQWDPPTWESPGDDAS [T31K], which abundance fitness is on record?
**A.** -0.651 ± 0.067

**Q.** Which abundance fitness does the source give for SPPKPKTIVLPPNWKTARDPEGKIYYYHVILRQTQWDPPTWESPGDDAS [T31L] here?
**A.** -0.748 ± 0.099

**Q.** Which abundance fitness does the source give for SPPKPKTIVLPPNWKTARDPEGKIYYYHVIMRQTQWDPPTWESPGDDAS [T31M] here?
**A.** -0.862 ± 0.11

**Q.** For SPPKPKTIVLPPNWKTARDPEGKIYYYHVINRQTQWDPPTWESPGDDAS [T31N], which abundance fitness is on record?
**A.** -0.798 ± 0.23

**Q.** For SPPKPKTIVLPPNWKTARDPEGKIYYYHVIPRQTQWDPPTWESPGDDAS [T31P], which abundance fitness is on record?
**A.** -0.785 ± 0.047

**Q.** For SPPKPKTIVLPPNWKTARDPEGKIYYYHVIQRQTQWDPPTWESPGDDAS [T31Q], which abundance fitness is on record?
**A.** -0.627 ± 0.084

**Q.** Which abundance fitness does the source give for SPPKPKTIVLPPNWKTARDPEGKIYYYHVIRRQTQWDPPTWESPGDDAS [T31R] here?
**A.** -0.502 ± 0.037

**Q.** With SPPKPKTIVLPPNWKTARDPEGKIYYYHVISRQTQWDPPTWESPGDDAS [T31S] as the variant, how does the abundance fitness read?
**A.** -0.131 ± 0.064

**Q.** With SPPKPKTIVLPPNWKTARDPEGKIYYYHVIWRQTQWDPPTWESPGDDAS [T31W] as the variant, how does the abundance fitness read?
**A.** -1.06 ± 0.077

**Q.** With SPPKPKTIVLPPNWKTARDPEGKIYYYHVIYRQTQWDPPTWESPGDDAS [T31Y] as the variant, how does the abundance fitness read?
**A.** -0.831 ± 0.27

**Q.** With SPPKPKTIVLPPNWKTARDPEGKIYYYHVITAQTQWDPPTWESPGDDAS [R32A] as the variant, how does the abundance fitness read?
**A.** -0.304 ± 0.063

**Q.** For SPPKPKTIVLPPNWKTARDPEGKIYYYHVITCQTQWDPPTWESPGDDAS [R32C], which abundance fitness is on record?
**A.** -0.357 ± 0.049

**Q.** For SPPKPKTIVLPPNWKTARDPEGKIYYYHVITDQTQWDPPTWESPGDDAS [R32D], which abundance fitness is on record?
**A.** -0.027 ± 0.097

**Q.** With SPPKPKTIVLPPNWKTARDPEGKIYYYHVITEQTQWDPPTWESPGDDAS [R32E] as the variant, how does the abundance fitness read?
**A.** -0.197 ± 0.085

**Q.** With SPPKPKTIVLPPNWKTARDPEGKIYYYHVITFQTQWDPPTWESPGDDAS [R32F] as the variant, how does the abundance fitness read?
**A.** -0.691 ± 0.21

Reference: the Human Domainome abundance scans (Beltran et al. 2025)
